The chains are these.
B1: LINE1-mini (parent)
chain: GGCAGAGCUCAACACAGCGUGGCAAAGUGGCUGUGGCUAGACUGCC

The series covers variants of B1. Kind of series: self-cleavage, relative activity (ratio to wild type); higher = more cleavage; in vitro, sequencing; the parent is a self-cleaving ribozyme.
As for GGCAGAGCUCAACACAGCGUGGCGAAGUGGCUGUGGCUAGACUUCC [A24G G44U], the self-cleavage worked out at 0.15.

With GGCAGAGCUCAACACAGCGUGGCGAAGUGGCUGUGGCUAGACUCCC [A24G G44C], the self-cleavage is 0.66.

As to GGCAGAGCUCAACACAGCGUGGCGAAGUGGCUGUGGCUAGACUACC [A24G G44A], the self-cleavage was 1. Take GGCAGAGCUCAACACAGCGUGGCGAAGUGGCUGUGGCUAAACUGCC [A24G G40A]: the self-cleavage came to 0.13. With GGCAGAGCUCAACACAGCGUGGCGAAGUGGCUGUGGCUAUACUGCC [A24G G40U] the figure was 0.16; with GGCAGAGCUCAACACAGCGUGGCGAAGUGGCUGUGGCUACACUGCC [A24G G40C], 0.18; with GGCAGAGCUCAACACAGCGUGGCGAAGUGGCUGUGGCUAGACGGCC [A24G U43G], 0.19. On to GGCAGAGCUCAACACAGCGUGGCGAAGUGGCUGUGGCUAGACCGCC [A24G U43C], for which the self-cleavage is 0.2.

Turning to GGCAGAGCUCAACACAGCGUGGCGAAGUGGCUGUGGCUAGACAGCC [A24G U43A], the self-cleavage is 0.11. As to GGCAGAGCUCAACACAGCGUGGCUAAGUGGCUGUGGCUAGAAUGCC [A24U C42A], the self-cleavage stood at 0.18. To GGCAGAGCUCAACACAGCGUGGCUAAGUGGCUGUGGCUAGAGUGCC [A24U C42G] belongs 0.06; to GGCAGAGCUCAACACAGCGUGGCUAAGUGGCUGUGGCUAGAUUGCC [A24U C42U], 0.4; to GGCAGAGCUCAACACAGCGUGGCGAAGAGGCUGUGGCUAGACUGCC [A24G U28A], 0.94. Turning to GGCAGAGCUCAACACAGCGUGGCGAAGGGGCUGUGGCUAGACUGCC [A24G U28G], the self-cleavage was found to be 0.45.

As for GGCAGAGCUCAACACAGCGUGGCGAAGCGGCUGUGGCUAGACUGCC [A24G U28C], the self-cleavage was determined as 0.72. For GGCAGAGCUCAACACAGCGUGGCUAAGUGGCUGUGGCUCGACUGCC [A24U A39C], the self-cleavage was 0.23. On to GGCAGAGCUCAACACAGCGUGGCUAAGUGGCUGUGGCUUGACUGCC [A24U A39U], for which the self-cleavage was 1.99.

As for GGCAGAGCUCAACACAGCGUGGCUAAGUGGCUGUGGCUGGACUGCC [A24U A39G], the self-cleavage was 0.14.

For the variant GGCAGAGCUCAACACAGCGUGGCUCAGUGGCUGUGGCUAGACUGCC [A24U A25C], the self-cleavage is 1.63. To GGCAGAGCUCAACACAGCGUGGCUUAGUGGCUGUGGCUAGACUGCC [A24U A25U] belongs 1.48; to GGCAGAGCUCAACACAGCGUGGCUGAGUGGCUGUGGCUAGACUGCC [A24U A25G], 1.28; to GGCAGAGCUCAACACAGCGUGGCGAAGUUGCUGUGGCUAGACUGCC [A24G G29U], 1.07.

Consider GGCAGAGCUCAACACAGCGUGGCGAAGUCGCUGUGGCUAGACUGCC [A24G G29C], for which the self-cleavage worked out at 0.48. Take GGCAGAGCUCAACACAGCGUGGCUAAGUGGCUGUGGCUAGUCUGCC [A24U A41U]: the self-cleavage was found to be 0.61. As for GGCAGAGCUCAACACAGCGUGGCUAAGUGGCUGUGGCUAGCCUGCC [A24U A41C], the self-cleavage is 0.07. Take GGCAGAGCUCAACACAGCGUGGCUAAGUGGCUGUGGCUAGGCUGCC [A24U A41G]: the self-cleavage was determined as 0.52. With GGCAGAGCUCAACACAGCGUGGCGAAGUGGCUGUGACUAGACUGCC [A24G G36A], the self-cleavage worked out at 0.17.

Consider GGCAGAGCUCAACACAGCGUGGCGAAGUGGCUGUGUCUAGACUGCC [A24G G36U], for which the self-cleavage amounted to 0.1. On to GGCAGAGCUCAACACAGCGUGGCGAAGUGGCUGUGCCUAGACUGCC [A24G G36C], for which the self-cleavage was 0.11.

For GGCAGAGCUCAACACAGCGUGGCUAAGUGGUUGUGGCUAGACUGCC [A24U C31U], the self-cleavage came to 0.25.

For GGCAGAGCUCAACACAGCGUGGCUAAGUGGGUGUGGCUAGACUGCC [A24U C31G], the self-cleavage was determined as 0.08. With GGCAGAGCUCAACACAGCGUGGCUAAGUGGAUGUGGCUAGACUGCC [A24U C31A] the figure was 0.07; with GGCAGAGCUCAACACAGCGUGGCUAUGUGGCUGUGGCUAGACUGCC [A24U A26U], 1.34.

Take GGCAGAGCUCAACACAGCGUGGCUAGGUGGCUGUGGCUAGACUGCC [A24U A26G]: the self-cleavage came to 0.84. To GGCAGAGCUCAACACAGCGUGGCGAAGUGGCUGUGGCAAGACUGCC [A24G U38A] belongs 0.76; to GGCAGAGCUCAACACAGCGUGGCGAAGUGGCUGUGGCGAGACUGCC [A24G U38G], 0.03; to GGCAGAGCUCAACACAGCGUGGCGAAGUGGCUGUGGCCAGACUGCC [A24G U38C], 0.71. For GGCAGAGCUCAACACAGCGUGGCUAAGUGGCUGUGGCUAGACUGCC [A24U], the self-cleavage worked out at 1.42. To GGCAGAGCUCAACACAGCGUGGCGAAGUGGCCGUGGCUAGACUGCC [A24G U32C] belongs 0.24; to GGCAGAGCUCAACACAGCGUGGCGAAGUGGCAGUGGCUAGACUGCC [A24G U32A], 0.14. With GGCAGAGCUCAACACAGCGUGGCGAAGUGGCGGUGGCUAGACUGCC [A24G U32G] the figure was 0.14; with GGCAGAGCUCAACACAGCGUGGCGAAGUGGCUAUGGCUAGACUGCC [A24G G33A], 0.07. With GGCAGAGCUCAACACAGCGUGGCGAAGUGGCUCUGGCUAGACUGCC [A24G G33C], the self-cleavage amounted to 0.06. Consider GGCAGAGCUCAACACAGCGUGGCGAAGUGGCUUUGGCUAGACUGCC [A24G G33U], for which the self-cleavage was determined as 0.08. Consider GGCAGAGCUCAACACAGCGUGGCGAAGUGGCUGUUGCUAGACUGCC [A24G G35U], for which the self-cleavage came out at 0.13. As for GGCAGAGCUCAACACAGCGUGGCGAAGUGGCUGUAGCUAGACUGCC [A24G G35A], the self-cleavage is 0.12. Regarding GGCAGAGCUCAACACAGCGUGGCGAAGUGGCUGUCGCUAGACUGCC [A24G G35C], the self-cleavage was 0.17. Regarding GGCAGAGCUCAACACAGCGUGGCUAAGUGGCUGUGGUUAGACUGCC [A24U C37U], the self-cleavage amounted to 0.07.

On to GGCAGAGCUCAACACAGCGUGGCUAAGUGGCUGUGGGUAGACUGCC [A24U C37G], for which the self-cleavage worked out at 0.05.

In the case of GGCAGAGCUCAACACAGCGUGGCUAAGUGGCUGUGGAUAGACUGCC [A24U C37A], the self-cleavage is 0.05. In the case of GGCAGAGCUCAACACAGCGUGGCGAAGUGACUGUGGCUAGACUGCC [A24G G30A], the self-cleavage was found to be 1.11.

Regarding GGCAGAGCUCAACACAGCGUGGCGAAGUGCCUGUGGCUAGACUGCC [A24G G30C], the self-cleavage was determined as 1.12. With GGCAGAGCUCAACACAGCGUGGCGAAGUGUCUGUGGCUAGACUGCC [A24G G30U] the figure was 2.49; with GGCAGAGCUCAACACAGCGUGGCGAAGUGGCUGCGGCUAGACUGCC [A24G U34C], 0.1; with GGCAGAGCUCAACACAGCGUGGCGAAGUGGCUGAGGCUAGACUGCC [A24G U34A], 0.09. As to GGCAGAGCUCAACACAGCGUGGCGAAGUGGCUGGGGCUAGACUGCC [A24G U34G], the self-cleavage stood at 0.14.
